One data set deals with dipeptidyl-peptidase-IV. The settings on record: degraded by dipeptidyl-peptidase-IV via cleavage of two N-terminal residues; cited from earlier work.
The test system of a further data set is INS-1 tumor mice. The experiment in a line: Ex vivo biodistribution in INS-1 tumor mice. Also on record: species or system mouse. The settings on record: control group, dissected tissue, γ-counter, 2 h post injection, n = 5, mean ± SD.

With “GLP-1: glucose-dependent hormone released mainly from the small intestine”, the half-life in vivo result in the data set with dipeptidyl-peptidase-IV is listed as “less than 2 min”. Take `O=C(NCCN1C(=O)C=CC1=O)c1ccc(F)nc1` [[^18F]FNEM, N-(2-(2,5-Dioxo-2,5-dihydro-1H-pyrrol-1-yl)ethyl)-6-fluoronicotinamide]: in the data set on INS-1 tumor mice, the “INS-1 tumor uptake (biodistribution)” value worked out at 23.06 ± 3.87%ID/g.

Values taken from paper PMC4224565 (Molecular Pharmaceutics, 2014).
